The results in this text go back to patent US20030083294.

Data set [1] has as its target T1, coagulation factor IXa (FIXa) (Homo sapiens) (UniProt P00740+P00740). Briefly: competition. The settings on record: 2'-F pyrimidines, 2'-OH purines; 3-nt 2'-OMe 3' tail; comparable to 9.3t.
Data set [2] has as its target T1, coagulation factor IXa (FIXa) (Homo sapiens). The following applies: 2'-F pyrimidines, 2'-OH purines; physiologic salt and pH, 37 C.
Data set [3] concerns the target T2, coagulation factor Xa (FXa) (Homo sapiens) (UniProt P00742+P00742). The settings on record: 2'-F pyrimidines, 2'-OH purines; <10% RNA bound at up to 5 uM protein; >5000-fold specificity.
The target of data set [4] is activated protein C (APC) (UniProt P04070+P04070). The settings on record: 2'-F pyrimidines, 2'-OH purines; <10% RNA bound at up to 5 uM protein; >5000-fold specificity.
The target of data set [5] is coagulation factor XIa (FXIa) (UniProt P03951+P03951). The settings on record: 2'-F pyrimidines, 2'-OH purines; <10% RNA bound at up to 5 uM protein; >5000-fold specificity.
Data set [6] has as its target coagulation factor VIIa (FVIIa) (UniProt P08709+P08709). The settings on record: 2'-F pyrimidines, 2'-OH purines; <10% RNA bound at up to 5 uM protein; >5000-fold specificity.
The target of data set [7] is T2, coagulation factor Xa (FXa) (Homo sapiens). The following applies: 2'-F pyrimidines?
The target is the same in data set [8]. The settings on record: 2'-F pyrimidines?; versus 11F7t; no anticoagulant activity in PT or APTT.

Usually Kd stands for the constant that tells how readily two partners part at equilibrium.

Like-named read-outs stand apart in the source and are kept apart here.

Regarding “AUGGGGACUAUACCGCGUAAUGCUGCCUCCCCAUN [9.3t-3NT]”, in data set [1], the Kd is below 1.5 nM.
As for “AUGGGGACUAUACCGCGUAAUGCUGCCUCCCCAUN [9.3t]”, the dissociation constant Kd is 0.6 nM in data set [2]; above 5000 nM in data set [3]; above 5000 nM in data set [4]; above 5000 nM in data set [5]; above 5000 nM in data set [6].
In the case of “GAGAGCCCCAGCGAGAUAAUACUUGGCCCCGCUCUUN [11F7t]”, the Kd in data set [7] is 1.5 nM.
With “GAGAGCCCCAGCGAGAUAAUACUUGUACCCGCUCUUN [11F7tM]”, in data set [8], the binding signal (fold loss of affinity) was above 1300.
